Patent US20210285949A1 (SPHINGOTEC, published 2021)
Where two headings read alike, the source gives them in different places. No end group written: not given here.

B1: mature human Adrenomedullin (Human ADM 1-52) (peptide)
peptide: YRQSMNNFQGLRSFGCRFGTCTVQKLAHQIYQFTDKDKDNVAPRSKISPQGY-NH2
modifications: ends and bridges not checked
B2: Mouse ADM 1-50 (peptide)
peptide: YRQSMNQGSRSNGCRFGTCTFQKLAHQIYQLTDKDKDGMAPRNKISPQGY-NH2
modifications: ends and bridges not checked

Key:
[1] = target: T1, human recombinant adrenomedullin receptor (CRLR+RAMP3) (human); test: cell-based or functional assay
[2] = target: T1, human recombinant adrenomedullin …; test: cell-based or functional assay; remark: listed apart in the source

T1 sequence (Q16602 whole entry, chain 1 of 2): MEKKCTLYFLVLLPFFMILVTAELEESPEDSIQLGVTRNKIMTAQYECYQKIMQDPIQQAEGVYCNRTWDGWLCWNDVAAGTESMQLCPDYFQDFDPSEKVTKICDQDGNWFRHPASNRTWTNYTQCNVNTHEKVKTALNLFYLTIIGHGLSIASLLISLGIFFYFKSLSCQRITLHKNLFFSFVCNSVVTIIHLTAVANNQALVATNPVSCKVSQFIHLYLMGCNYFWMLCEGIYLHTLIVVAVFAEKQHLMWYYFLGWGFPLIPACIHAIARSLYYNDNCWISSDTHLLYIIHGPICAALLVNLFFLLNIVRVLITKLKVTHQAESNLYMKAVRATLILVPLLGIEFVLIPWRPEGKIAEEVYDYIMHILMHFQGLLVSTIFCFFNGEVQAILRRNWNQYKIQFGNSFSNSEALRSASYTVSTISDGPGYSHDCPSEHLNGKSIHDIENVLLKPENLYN
T1 sequence (O60896 whole entry, chain 2 of 2, further chain): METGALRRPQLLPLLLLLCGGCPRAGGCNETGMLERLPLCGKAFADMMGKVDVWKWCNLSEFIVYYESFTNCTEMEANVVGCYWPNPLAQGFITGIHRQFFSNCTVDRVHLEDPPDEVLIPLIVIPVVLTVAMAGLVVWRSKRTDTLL

Row | Binder | EC50 (read off the curve); cAMP HTRF assay, CHO-K1 cells with human CRLR+RAMP3 [1] [nM] | EC50 (read off the curve); cAMP HTRF assay, CHO-K1 cells with human CRLR+RAMP3 [2] [nM]
1 | B1 | ~1 | 
2 | B2 |  | ~0.08
